These results are taken from a protein production outcome set (Wang et al. 2014).

This data set in a line: label from the status in PepcDB records.

As to “MSTYTARLGGRTHSFPSLAALLAAASPERSGDRLAGLAADSAEARVAARWALAEVPLARFLAEPVIPYEDDDVTRLIVDTHDARAFAPVAGLCVGEFREWLLSDAADAGSLAALAPGLTPEMVAAVSKLMGNADLVAVARKARVVTAFRSTIGLPGRLATRLQPNHPTDDPAGVAAALLDGLLLGSGDAVIGINPATDSPKAVRDLLELLDGVIRRYAIPTQSCVLCHVTTSIDLMERGAPVDLVFQSIAGTQAANASFGVTLGLLDEAYDAARGLGRGTAGQNALYFETGQGSALSANAHHGVDQQTVEARAYAVARRYDPLLVNTVVGFIGPEYLYDGRQILRAALEDHFCGKLLGLPMGLDICYTNHADADDDDIATMLTMLGVAGASFVICTPGGDDIMLNYQSASYHDALYLREVLGLRPAPEFEDWLSRIGLLDDAGAIRDVTGTAHPLTAIGRELAA”, the protein production result is listed as “failed”. For “MSVADSYFDELFRNNDDPWAFKQRWYERRKRALTLAALPRERYRAIFEPGCANGELSADLAERCDMLVCCDTSTQAVELARQRLADVPHARVVQARLPHQWPAGQFDLIVFSELGYYLDAADLHRLIDCALAALSPDGQLLACHWRPDIEGCPLNAQAVHAILAERLSMHRLFSHHEQDFLLDLWSRDGTSVAELEHHHHHH” the value was “not failed”; for “MSVDAVEIETLRKTVEDYFCFCYGKALGKSTVVPVPYEKMLRDQSAVVVQGLPEGVAFKHPENYDLATLKWILENKAGISFIIKRPFLEPKKHVGG”, “not failed”; for “MSVEAAKNARELLLKEYRAVLSTHSKKWPGFPFGSVVPYCLDAEGRPLILISRIAQHTHNLQADPRCSMLVGERGAEDIQAVGRLTLLAEARQLAEEEVAAAAERYYRYFPESADYHRVHDFDFWVLQPVQWRFIGGFGAIHWLAAERVPLANPFAGEAERGMVEHMNSDHAAAIAHYVELAGLPAHAAAQLAGIDTEGFHLRIGQGLHWLPFPAACGNPGAVRQALVQLARAERWPTVEPEQG”, “not failed”.

With “MSVEQLNQLNIEELIITLENVLKILKQYSKVSNSSITFKEFVDYWFEAYASTAVKPSTQKRYRQLLKPALRAIGNKPLNKVKPLDIQNIYIALAGTQSNCTILKLHRLLHEIFKHAQMWEYISDNPVKKVVPPTPEKKVFDVWDVETAKRFLEIIKDEPIYYPALIALHTGMRAGEILSLKWCDVNFETRVISIVKSERKNRGLKTVNLKTKTSKRAVYMNDILYKELKNLYEITKPKPDDFVCPRLPTGNLTVNYLSRKFKKLVKKHNFPLIRFHDLRHTFATLMLSLGVNTKIVAEILGHSDIKLTADTYSHVLPTMQEEAMKEFVKLWK”, the protein production entry was “failed”. “MSVFSGFPASPPDAILNLTVLYNADTNPKKVNLGVGAYRDESGKPWILPAVKEAEAIISSDLSKYNKEYPPVAGFPLFLEAAQFLMFGKDSKAAQEGRIASCQSLSGTGSLHIGFEFLHLWMPKAEFYMPSTTWPNHYGIYDKVFNKLKVPYKEYTYLRKDGELEIDFSNTKKDIQSAPEKSIFLFHACAHNPSGIDFTEAQWKELLPIMKEKKHIAFFDSAYQGFATGSFEADAFAVRMFVDAGVEVLVAQSFSKNFGLYGERIGCLHVVHAGVEGSVEKNKALSAAMVSGMTLQIRKTWSMSAIHGAYIVQVIVHDKRLLQMFYDNVKEMSARIHRMRSLLHASLAKRKTPGPGSKGTWDHILTAIGMFTFTGLTPEHVDYLKEKWSIYLVKAGGRMSMCGLTESNCDYVAEAIHDAVTKLPFKK”: the protein production entry was “not failed”.

Take “MSVGIDSLDNDHKKLIAILAQLMSAKNEKLGQDDIDVIFERLEGYCLSHFAREEALLAKIDYKQLEAHKLSHQAFIKKIPQLKEQWFAKVTESEAVKDKIILFLQQWLIKHILEEDLDYVPAIHCFQEFSRYEKDKKAKHPWLRFFSIKLSHCLILSHRVLITTLLPVAAVLLLCFFILKDNYQRYDSISKVLGLNSVIEQVNGISHSLQAERGLSTGYTSSNYRSFAKQLRQRRKSTDAKIQYFLWLLEQSANQEIKVSVSRYMTNFQEIVANLSRHRMHLDQKIVGFEETYHAYTQLIGQLLSVSDHLVHIEIGSSHANDISAINAILRYKEFMGQIRAIGMKMAENHQENIYGNVEVSLLIGKQLNTLLIFKNAANSAQKSICGHYCDAFALRQHLESSYLETMQFEDKDVRAARWFKVMSAKVDNLNSVVQRLINEFDGQIYIESQKLKKEGYLIILAMLIFLLVAIFFALVLNYSIISPVRKLTYALNDMSEGQNNIHFNHIDSKDEIGSMQLAFEKLRRKLLQGDVYKATVSQQQKEIKYRKSQQDHFQQLALTDALTGAVNRHHFNEVLDQEIANVNNHGSPLSIMLLDIDHFKSVNDRYGHGVGDEVLVMFYQTCVEAVRSSDVVARIGGEEFVIIMPNTQLVNAQKFAERLRQKIAKLELNIANNQISVTVSIGVSQWQSEYFTNAETFVAHADKSLYQAKNSGRNKVVVAQQ”: the protein production result is “failed”.

Take “MSVGVEVLTISFVVIVIAAVIGFLARSKNVSLEQWAVGGRNIGALLIWFLLAGEIYTAFTFLGVPGYAYAFGAPAYYALSYGVLAYLTSYFILPKIWRISKKKNIMTQPDFFKERYQSTLLATIVAVVGVVFMVPYLELQVSAITDILEVMGYNVIMPAYVMIITFVLTAGYVIMNGLRSATFTAFFKDGLALIVIFSALIVIPAVQFGDLNNMMHRMVTNYSEYLYFPGHSELGLSWFVSVVLMSALGFFMWPHSFQSYISAKNDNVLKKNAVFLPVYNVLLVITVFMGFAALLYNPHLSNADDAFLIVARASFPSWWNGVVAGAITLGSMVPASVLLIASSTIISKNLYKDLINKKASDSSVKFIAQVFVAIITGVALLFAIEFPALFVNLLLLGYSGITLFFPGIVMGITWRKVTAVGVISGIITGLIVNAVFFLPLSSYSHIIYPGLVGLFADTVVTILVSLVTKAPSGEVIEEFVTA”: the protein production entry is listed as “failed”. “MSVIKIEKALKLDKVIFVDVRTEGEYEEDHILNAINMPLFKNNEHNEVGTIYKMQGKHEAIQKGFDYVSYKLKDIYLQAAELALNYDNIVIYCARGGMRSGSIVNLLSSLGVNVYQLEGGYKAYRNFVLEY”: the protein production entry is “not failed”.

Take “MSVILLGLGRYVEEIVEVVSAISDVVLVERDEARLRAFLEKAPVANLRALPGSATDVGLWKEVDLEAAEAVISFLSVEATLDVARLLRKALGYRSKIVHVSKARPDPQAVRELDLEVVSIPEVLGAILRNLLQGQGIVRYPVGIGLRKGEVVEVLITESSPAVYARLRELRQPGARVALVYREGSPILPRADFRVQPGDRLLVVGDPRGVEIFVGAVIRGEPTFPRRFGSVGALCRAEDEEALYLKERLKVRDWVEACEDPKGVAEVGVFLARDRDWVRRAFQEGYPFPSFHLRGTHPYRSILVSANTEALSPLLASAMDLARIFGSEVYVLFVSRVEAFMPPEEKELLENLKVLVERARKTSGLEVHLIRKEGNPVRETLRLLKGKFNLLALGYTPGRRTAFFRPYVPQLLAQASPVSTLLVPEVNLER”: the protein production result is reported as “failed”. As to “MSVLSALQYYFFYPSFFLTVIFPGLIFTLIFLLVTIWFERKAAAIVQLRYGPYYASKRLGGILQLFADAIKFVFSEIIIPNGVNQTLYAISPVLVLIFAFLPMALIPISTIPTQGSILSVYHGIFYDTQIHQGILVPYFIEYNLIGIIALESLYPILVIFLAWNTNNRFAIVGSIREAYLSVSYDVLIIISTLALGLEYHTLDVAKIVTSGIPGFIANPIAAFVFLVAMLIGSSRFPFEIVEAETELVIGPYTEYSGFLFVLTMAGSYVANLVYAILFVDLFLGGWLPFTGFVGAIFTVFKAAIVVFFAVFLRAVYGRYRIDQALRGSWKYFFPLALASLLLGVVVGYLWIR”, the protein production result is “failed”.
